Reference: the nanobody polyreactivity screen of Harvey et al. (2022)

Experiment: yeast display, Sf9 membrane polyspecificity reagent, FACS + sequencing; frameworks hold sequencing errors
Method in brief: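 Galactose-induced (36–48 hours) yeast carrying a synthetic nanobody display library were exposed to 10% biotinylated, detergent-solubilized Sf9 membrane reagent at 4 °C for 1 hour. FACS followed streptavidin microbead enrichment, using low and high (top ~1%) gates for expression (anti-HA) and reagent binding (streptavidin). Colony PCR, MiSeq 2 × 250 sequencing and CDR-length filtering followed. Labels for polyreactivity reflect the gate of origin.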

## QVQLVESGVGLVQAGGSLRLSCASSGSTCGYYTMGWYRQAPGKERELVAAITKTGGGTYYADSVKGRFTISRDNAKNTDYLQMNSLKPEDTAVYYCAAYSRFTSDYWGQGTQVTVSS
  polyreactivity (PSR sort gate): high polyreactivity

## QDQLVESGGGLVQAGCSLRFTCAACGRIFHYYAMGWYRQAPGKERELVAAITSSRGSTYYADSVKGRFTISRDNAKKTGYVQMNSLQPEDTAVYYCAAGLIVGRFVRYDYWGQGTHVTVSS
  polyreactivity (PSR sort gate): high polyreactivity

## QVQLVESGGGLVQAGGSLRLSCAASGSIFSSYAMGWYRQAPGKERELVAGISRRGGSTYYADSVKGRFTISRDNAKNTVYLLMNSLKPEDTAVYYCNARYAGSDLDYWGQGTQVTVSS
  polyreactivity (PSR sort gate): high polyreactivity

## QGQLVESGGGLVQAGGCLRLSCAASGAIFCYAMGWYRQAPGKERDLVAAISFSGVSTYYADSVKGRFTISRENAKNSVYLQMISLIPEDTAVYYCNAYSDGDEDYWGQGTKVTVSS
  polyreactivity (PSR sort gate): low polyreactivity

## QVQLVESGGGLVQAGGSLRLSCAASARTFYYNGMGWYIQAPGKERELVAASSGGGSSTSYADSVKGRFTISRDNAKNTVYLQMNSLKPEDTAVYYCAAKYGALRYYKMYYWGQGTQVTVSS
  polyreactivity (PSR sort gate): low polyreactivity

## QVQHVESGGGLVQAGASLRLSCAASGLTFYRYALGWYRQARGNERELVAAITSGTRTYYADSVKGRFTISRDNAKNTVYLQMYSLKPEDTAVYYCAASWQTRTYQSRYYYWGQGTQVTVSS
  polyreactivity (PSR sort gate): high polyreactivity

## QVQLVESGGGLVQAGGSLRLSCAASGLTSYDNTMGWYRQAPGKERELVARIRRTGGGTYYADSVKGRFTISRDNAKNTVYLQMNSMKPEDTAVYYCAATITPYDYDYIWFVYSDHDYWGQGTQVTVSS
  polyreactivity (PSR sort gate): low polyreactivity

## QVQLLESGGGLVQAGGSLRLSCAASRTISYAGTRLWYRQAPGKEREFVAGIGVGSNTNYADSVKGRYTIIRDNAINTVYLQMTSLKPEDTAVYYCAVGGYAPLGRPFWGQGTQVSVSS
  polyreactivity (PSR sort gate): low polyreactivity

## QVQLVESGGGLVQAGGSLRLSCAASGRIFVVNAMGWYRQAPGTERELVAAITRRGGSTYADSVKGRFTISRDNAKNTVYLQMNSLKPEDTAVYYCNAESYYGIFRYKYDYWGQGTQVTVSS
  polyreactivity (PSR sort gate): high polyreactivity

## QVQLVESGGGLVQAGGSLRLSCAASGSIFLRNAMGWYRQAPGKERELVAAITYSSGSTYYADSVKGRFTISRDNAKNTVYLQMNSLKPEDTAVYYCAATSRSSRRYYYWGQGTQVTVSS
  polyreactivity (PSR sort gate): high polyreactivity

## QVQLVESGGGLVQAGGSLRLSCAASGRTFWDYAMGWYIQAPGKEREFVAAINTSGGRTYYADSVKGRFTISRDNAKNTVYLQMNSLKPEDTAVYYCAARTRDRAYDSWGQGTQVTVSS
  polyreactivity (PSR sort gate): high polyreactivity

## QVQLVESGGGLVQAGVSLRLSCAASGFSFAKNAMAWYRQAPGKERELVADITYSGGSTYADSVKGRFTISLDNAKNTVYFQMNSLKPEDTAVYYCAADSRRRSCYDYWVQGTQVTVSS
  polyreactivity (PSR sort gate): low polyreactivity

## QVQLVESGGGLVQAGGSLRLSCAASGFNFPYYAMGWYRQAPGKERALVAAIRISGGSTYYADSVKGRFTISRDNAKNTVYLQMNSLKPEDTAVYYCAADYRYRSRFYYWGQGTQVTVSS
  polyreactivity (PSR sort gate): low polyreactivity

## EVQLVESGGGLVQAGGSLRLSCAASGYSFSYNTMGWYRQAPGKERELVAAITRSGGSTYYADSVKGRFTISRDNAKNTVYLQMNSLKPEDTAVYYCNRVGWRGLKKANYWGQGTQVTVSS
  polyreactivity (PSR sort gate): high polyreactivity

## QVQLVESGGGLVQAGGSLRLSCAASGITFYGYAMGWYRQAPGKEREFVATISKSGGITSYADSVKGRFTISRDNAKNTVYLQMNSLKPEDTAVYYCNRGKRYGGYDYWGQGSQVTVSS
  polyreactivity (PSR sort gate): low polyreactivity

## QVQLLESGGGLVQAGGSLRLSCAASGYTFTWYAMGWYRQAPGTEREFVAAISIGGDSTYYADSVKGRFTNSRDNAKNTVYLLMNSLIPEDTAVYYCAADTYPRWILLIGELQVETSYDYWGQGTQVTVSS
  polyreactivity (PSR sort gate): low polyreactivity

## QVQLVESGGGLVQAGGSLRLSCAAYGLTFGYYVMGSYRQAPGKERELVADINFSGGSTYYADSVKGRFTISRDNAKNTVYLHMNSLKTEDTAVYYCNAVVYRFTVSSGYESWGEGTQVTVSS
  polyreactivity (PSR sort gate): low polyreactivity

## QVQLVESGGGLVQAGGSLRLSCAASGFTFSSYAMGWYRQAPGKERELVAAISTRGGSTYYADSVKGRFTISRDNAKNTVYLQMNSLNPEDSAVYYCAAPVNTSGDEYGYWGQGTQVTVSS
  polyreactivity (PSR sort gate): low polyreactivity

## QVQLQESAGGLVQAGGSLRLRCSASGYISCDASMGWYRQAPGKERELAASITKGSSTNYADSVKGRFTIRDNAKNTVYLQMNSLKPEDSAVCYCAVTYPYWGDYTYWGQGTQVTVSS
  polyreactivity (PSR sort gate): low polyreactivity

## QVQLVESGGGLVQAGGSLRLSCAASGSTFEAYAMGWYRQGPGKERELVAAINFTGGRTYYADSVKGRFTISRDNAKNTVYLQMNSLKPEDTAVYYCAARKWGVPYIDNDYWGQGTQVTVSS
  polyreactivity (PSR sort gate): low polyreactivity

## QVQLVESGGGLVQAGGSLRLSCAASGSIFFSNVMGWYRQAPGKERELVAAITGRTGSTYYADSVKGRFTISRDNAKNTVYLQMNSLKPEDTAVYYCFSYWPRYWQSGNDYWGQGTQVTVSS
  polyreactivity (PSR sort gate): high polyreactivity

## QVHRVESGGGLVQAGGSLRLSCAASGIIFARYAMGWYRPAPGKERELVAAITRRAVSTYYADSVKGRFTITRDNAKNSVYLQLISLKPEDTAVYYCAADRASYFTYAYGYWGQGTQVTVSS
  polyreactivity (PSR sort gate): high polyreactivity

## QVQLVESGGGLVQAGGSLRLSCAASGINLAGYVMGGYRQAPGKERDLVADISSSGDSTYYADSVKGRFTISRDNAKNTVYLQMNSLLPEDTAVYYCAAEEIIPLIYKGYPFDYWGQGSQVTVSS
  polyreactivity (PSR sort gate): low polyreactivity

## QVQLVESGGGLVQAGGSLRLSCAASGRIFYYNAMGWYRQAPGKERELVAAIRSSGGTTYYADSVKGRFTISRDNAKNTVYLQMNSLKPEDTAVYYCNARYWVYYVYEYDSWGQGTQVTVSS
  polyreactivity (PSR sort gate): low polyreactivity

## QDQLVESGGGLVQAGGSLRLSCAASGSTFPKYAMGWYRQAPGKERELVASISVTTGSTYYADSVKGRFTISRDNAKNTVYLQMNSLKPEDTAVYYCPKRTYSRKFRGAYNYWGQGTQVTVSS
  polyreactivity (PSR sort gate): high polyreactivity

## QVQLVESGGGLVQAGGSLRLSCAASGSIFTGYAMGWSRQAPGKEREMLAAISWSGGSTSYADSVKGRFTISRDNAKNTVYLQMNSLKPEDTAVYYCSTDVRQGSGWRYYYWGQGTQVTVSS
  polyreactivity (PSR sort gate): high polyreactivity

## QLQLVESGGVLDQAGRSLRLICAASVIIFRGYAKGRSRQAHGKERELVAAISRSGGRTYYADSVKGRFTISRDNAKKTVYLQRNSLKTEDTAVYYCAPQWLYLEYDYWGQGTQVTVSS
  polyreactivity (PSR sort gate): high polyreactivity

## QVQLVESVGCLVQAGGSLRLSCAASGRTVVYGYAMGWYRQDPGKERELVAAITSGGSTNYADSVKGRFTISRDNAKNTVYLQMNSLNPEDSAVYYCNAGTVLISTYDYWGQGTQVTVSS
  polyreactivity (PSR sort gate): high polyreactivity

## QVQLVESGGGLVQAGGSLRLSCAASGSISAAYAMGWYRQAPGKERELVADISSSGVSTYYADSVKGRFTISRDNAKNTVYLQMNSLKQEDTAVYYCAKNRVAGYRKYDYWGQGTQVTVSS
  polyreactivity (PSR sort gate): low polyreactivity

## QVQLVESGGGLVQAGGSLRLSCAASGSILYYNAMGWYRQAPGKEREFVAAISDSGSSTYYADSVKGRFTITRDNAKNTVYLQMNSLKPEDTAVYYCNTEIYVDIISDYGYWGQGTQVTVSS
  polyreactivity (PSR sort gate): low polyreactivity

## QVQLVESGGGLVQAGGSLRLSCAASGFILYGNAMGWYRQAPGKERELVAAISRRGGSTYYADSVKGRFTISRDNAKNTVYLQMNSLKPEDTALYYCAKDGPGGGTRIYDYWGQGTQVTVSS
  polyreactivity (PSR sort gate): high polyreactivity

## QVQLVESGGGLVQAGGSLRLSCAASGRIFYRNAMGWYRQAPGKERELVAAITGSTGNTYYADSVKGRFTISRDNAKNTVYLQMNSLKPEDTAVYYCIAGLGRWWHYPATYYYYWGQGTQVTVSS
  polyreactivity (PSR sort gate): low polyreactivity

## QVQLVESGGALVQAGGRLRLSCAASGLTLHRYTMGWYRQAPGKERELVAVITYGGGNTYYADSVKGRFTISRDNAKNTVYLQMNSLKPEDNAVYYCAARYPPFYWYDYWGQGTQVSVSS
  polyreactivity (PSR sort gate): low polyreactivity

## QVQLVESGGGLFQAGGSLRLSCAASGSTFHYNNMGWYRQAPGKERELVAAISWLGDPTYYADSVKGRFTISRDNAKNTVYLQMNSLKPEDTSVYFCNAVRLSRYRPNPFGYGHWGQGTQVTVSS
  polyreactivity (PSR sort gate): high polyreactivity

## QVQLVESGGGLVQAGGSLRLSCAASGRIIYYAMGRYRQAPGKERELVAAITRNGGTYADSVKGRFTISRDNSKNTVYLPMISLKAEDSAVYYCNADPDFGDDYWGQGTQVTVSS
  polyreactivity (PSR sort gate): low polyreactivity

## QVQLVESGGGLVHAGGSLRLSCAASGNTYLYYGLGWYRQAPVKEREMVAAITQSGGTTYYADSVKGRFTISRDNAKNTVYLQMNSLTPEDTAVYYCAATRYYYYWYVYDDRGDYWGQGTQVTVSS
  polyreactivity (PSR sort gate): low polyreactivity

## QVQLVESGGGLVQAGGSLRLSCDASGSTFGANAMGWYRQAPGKEREFVAAISRSGVRTYYADSVKGRFTISRDNAKNTVYLQMNSLKPEDTAVYYCAADGYWWTYTRYDYWGQGTQVTVSS
  polyreactivity (PSR sort gate): low polyreactivity

## QVHLVESGGGLVQAGGSLRLSCAASGSIFWWYAMGWYRQAPGKERELVAAIRWSGTTAFYADSVKGRFTISRDYAKNTVYLQMNSLKPEDTAVYYCNAEGGIWGGTTGYDYWGQGTQVTVSS
  polyreactivity (PSR sort gate): low polyreactivity

## QVQLVESGGGLVQAGGSLRLSCAASGYIFAYNTMGWYRQAPGKERELVAAISRSGGSTYYADSVKGRFTISRDNAKNTVYLQMNSLKPEDTAVYYCAARYAPLDFRFDYWGQGTQVTVSS
  polyreactivity (PSR sort gate): high polyreactivity

## QVQLVESGGGLVQAGGSLRLSCAASGSIFLQYAMAWYRQAPGKERELVAAISWSGGSTYYAYSVKGRFTISRDNAKNTVYLQMNSLKPEDTAVYYCAAPITPYSHYRMDYWGQGTQVTVSS
  polyreactivity (PSR sort gate): low polyreactivity

## QVQLVESGGGLVQAGGSLRLSCAASGRTFGLYAMGWYRPAPGKERELVADINGSGTRTYYADSVKGRFTISRDYAKNTVYLQMNSLKPEDTAVYYCYGRYHWLYYWGQGTQVTVSS
  polyreactivity (PSR sort gate): high polyreactivity

## QVQLVESGGGLVQAGGSLRLSCAASGSIFVLNAMGWYRPAPGKDRELVAAITNVGSTYYADSVKGRFTISRDNAKNTVYLQMNSRKPEDTAVYYCNADPAEVLVGYDYWGQGTQVTVSS
  polyreactivity (PSR sort gate): low polyreactivity

## QVQLVESGGGLVQAGGSLRLSCAASGFTFYYNAMGWYRQAPGKERELVAGISGRGGTTYYADSVKGRFTISRDNAKNTVYLQMNSLKPEDTAVYYCAARKVRARSKFEYWGQGTQVTVSS
  polyreactivity (PSR sort gate): high polyreactivity
